Source: patent US20140178854A1

Tests used:
[1] = biological target: gp70 env protein of amphotropic MLV (4070A envelope), on purified viral particles (amphotropic murine leukemia virus (4070A envelope)); assay: human anti-MLV ELISA on plate-bound MLV, anti-rat Ig HRP alone or conjugate cocktail
[2] = biological target: gp70 env protein of amphotropic MLV (4070A envelope), on purified viral particles (amphotropic murine leukemia virus (4070A envelope)); assay: ELISA on plate-bound MLV, dilution factor 6250, Exp121-Ana Plate 1
[3] = biological target: gp70 env protein of amphotropic MLV (4070A envelope), on purified viral particles (amphotropic murine leukemia virus (4070A envelope)); assay: ELISA on plate-bound MLV, dilution factor 156250, Exp072-DTV Plate 2
[4] = biological target: gp70 env protein of amphotropic MLV (4070A envelope), on purified viral particles (amphotropic murine leukemia virus (4070A envelope)); assay: ELISA on plate-bound MLV, dilution factor 250, inter-assay mean of six experiments
[5] = biological target: gp70 env protein of amphotropic MLV (4070A envelope), on purified viral particles (amphotropic murine leukemia virus (4070A envelope)); assay: ELISA on plate-bound MLV, dilution factor 31250, Exp073-DTV Plate 1
[6] = biological target: gp70 env protein of amphotropic MLV (4070A envelope), on purified viral particles (amphotropic murine leukemia virus (4070A envelope)); assay: ELISA on plate-bound MLV, dilution factor 1250, Exp073-DTV Plate 2
[7] = biological target: gp70 env protein of amphotropic MLV (4070A envelope), on purified viral particles (amphotropic murine leukemia virus (4070A envelope)); assay: ELISA on plate-bound MLV, dilution factor 156250, inter-assay mean of six experiments
[8] = biological target: gp70 env protein of amphotropic MLV (4070A envelope), on purified viral particles (amphotropic murine leukemia virus (4070A envelope)); assay: ELISA on plate-bound MLV, dilution factor 6250, Exp074-DTV Plate 2
[9] = biological target: gp70 env protein of amphotropic MLV (4070A envelope), on purified viral particles (amphotropic murine leukemia virus (4070A envelope)); assay: ELISA on plate-bound MLV, dilution factor 50, Exp073-DTV Plate 2
[10] = biological target: gp70 env protein of amphotropic MLV (4070A envelope), on purified viral particles (amphotropic murine leukemia virus (4070A envelope)); assay: ELISA on plate-bound MLV, dilution factor 250, Exp072-DTV Plate 1
[11] = biological target: gp70 env protein of amphotropic MLV (4070A envelope), on purified viral particles (amphotropic murine leukemia virus (4070A envelope)); assay: ELISA on plate-bound MLV, dilution factor 50, Exp125-Ana Plate 2
[12] = biological target: gp70 env protein of amphotropic MLV (4070A envelope), on purified viral particles (amphotropic murine leukemia virus (4070A envelope)); assay: ELISA on plate-bound MLV, dilution factor 1250, inter-assay mean of six experiments
[13] = biological target: gp70 env protein of amphotropic MLV (4070A envelope), on purified viral particles (amphotropic murine leukemia virus (4070A envelope)); assay: ELISA on plate-bound MLV, dilution factor 10, Exp073-DTV Plate 2
[14] = biological target: gp70 env protein of amphotropic MLV (4070A envelope), on purified viral particles (amphotropic murine leukemia virus (4070A envelope)); assay: ELISA on plate-bound MLV, dilution factor 1250, Exp125-Ana Plate 2
[15] = biological target: gp70 env protein of amphotropic MLV (4070A envelope), on purified viral particles (amphotropic murine leukemia virus (4070A envelope)); assay: ELISA on plate-bound MLV, dilution factor 781250, Exp125-Ana Plate 1
[16] = biological target: gp70 env protein of amphotropic MLV (4070A envelope), on purified viral particles (amphotropic murine leukemia virus (4070A envelope)); assay: ELISA on plate-bound MLV, dilution factor 250, Exp074-DTV Plate 2
[17] = biological target: gp70 env protein of amphotropic MLV (4070A envelope), on purified viral particles (amphotropic murine leukemia virus (4070A envelope)); assay: ELISA on plate-bound MLV, dilution factor 781250, Exp072-DTV Plate 2
[18] = biological target: gp70 env protein of amphotropic MLV (4070A envelope), on purified viral particles (amphotropic murine leukemia virus (4070A envelope)); assay: ELISA on plate-bound MLV, dilution factor 1250, Exp072-DTV Plate 2
[19] = biological target: gp70 env protein of amphotropic MLV (4070A envelope), on purified viral particles (amphotropic murine leukemia virus (4070A envelope)); assay: ELISA on plate-bound MLV, dilution factor 6250, Exp122-Ana Plate 1
[20] = biological target: gp70 env protein of amphotropic MLV (4070A envelope), on purified viral particles (amphotropic murine leukemia virus (4070A envelope)); assay: ELISA on plate-bound MLV, dilution factor 156250, Exp125-Ana Plate 1
[21] = biological target: gp70 env protein of amphotropic MLV (4070A envelope), on purified viral particles (amphotropic murine leukemia virus (4070A envelope)); assay: ELISA on plate-bound MLV, dilution factor 250, Exp125-Ana Plate 2
[22] = biological target: gp70 env protein of amphotropic MLV (4070A envelope), on purified viral particles (amphotropic murine leukemia virus (4070A envelope)); assay: ELISA on plate-bound MLV, dilution factor 31250, Exp072-DTV Plate 1
[23] = biological target: gp70 env protein of amphotropic MLV (4070A envelope), on purified viral particles (amphotropic murine leukemia virus (4070A envelope)); assay: ELISA on plate-bound MLV, dilution factor 10, Exp121-Ana Plate 1
[24] = biological target: gp70 env protein of amphotropic MLV (4070A envelope), on purified viral particles (amphotropic murine leukemia virus (4070A envelope)); assay: ELISA on plate-bound MLV, dilution factor 31250, inter-assay mean of six experiments
[25] = biological target: gp70 env protein of amphotropic MLV (4070A envelope), on purified viral particles (amphotropic murine leukemia virus (4070A envelope)); assay: ELISA on plate-bound MLV, dilution factor 50, Exp073-DTV Plate 1
[26] = biological target: gp70 env protein of amphotropic MLV (4070A envelope), on purified viral particles (amphotropic murine leukemia virus (4070A envelope)); assay: ELISA on plate-bound MLV, dilution factor 781250, Exp073-DTV Plate 2

Sequence of gp70 env protein of amphotropic MLV (4070A envelope), on purified viral particles (amphotropic murine leukemia virus (4070A envelope)) (P21995 whole entry): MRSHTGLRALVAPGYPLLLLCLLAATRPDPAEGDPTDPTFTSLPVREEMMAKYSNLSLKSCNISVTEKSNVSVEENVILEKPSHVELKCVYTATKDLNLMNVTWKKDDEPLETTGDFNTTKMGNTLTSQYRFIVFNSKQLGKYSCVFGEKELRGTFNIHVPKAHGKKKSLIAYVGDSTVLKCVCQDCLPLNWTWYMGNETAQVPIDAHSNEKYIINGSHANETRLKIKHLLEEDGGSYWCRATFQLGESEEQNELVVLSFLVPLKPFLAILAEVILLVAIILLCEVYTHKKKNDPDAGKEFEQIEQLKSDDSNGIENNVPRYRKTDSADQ

Substance: 83A25 monoclonal antibody (rat IgG2a, anti-gp70)
- titer (reciprocal dilution (1:x)) [1]: 312000
- Mean OD [2]: 0.903 OD
- Mean OD [3]: 0.119 OD
- Mean OD (inter-assay mean) [4]: 1.93 OD
- Mean OD [5]: 0.282 OD
- Mean OD [6]: 1.61 OD
- Mean OD (inter-assay mean) [7]: 0.144 OD
- Mean OD [8]: 0.699 OD
- Mean OD [9]: 2.31 OD
- Mean OD [10]: 1.7 OD
- Mean OD [11]: 1.96 OD
- Mean OD (inter-assay mean) [12]: 1.53 OD
- Mean OD [13]: 2.48 OD
- Mean OD [14]: 1.44 OD
- Mean OD [15]: 0.105 OD
- Mean OD [16]: 1.89 OD
- Mean OD [17]: 0.104 OD
- Mean OD [18]: 1.31 OD
- Mean OD [19]: 0.64 OD
- Mean OD [20]: 0.136 OD
- Mean OD [21]: 1.88 OD
- Mean OD [22]: 0.202 OD
- Mean OD [23]: 2.65 OD
- Mean OD (inter-assay mean) [24]: 0.259 OD
- Mean OD [25]: 2.27 OD
- Mean OD [26]: 0.11 OD
